Source: IntAct's records for PubMed 29039417

B1: BBSome complex member BBS2 (Homo sapiens), Q9BXC9 (parent)
chain: MLLPVFTLKLRHKISPRMVAIGRYDGTHPCLAAATQTGKVFIHNPHTRNQHVSASRVFQSPLESDVSLLSINQAVSCLTAGVLNPELGYDALLVGTQTNLLAYDVYNNSDLFYREVADGANAIVLGTLGDISSPLAIIGGNCALQGFNHEGSDLFWTVTGDNVNSLALCDFDGDGKKELLVGSEDFDIRVFKEDEIVAEMTETEIVTSLCPMYGSRFGYALSNGTVGVYDKTSRYWRIKSKNHAMSIHAFDLNSDGVNELITGWSNGKVDARSDRTGEVIFKDNFSSAIAGVVEGDYRMDGHIQLICCSVDGEIRGYLPGTAEMRGNLMDTSAEQDLIRELSQKKQNLLLELRNYEENAKAELASPLNEADGHRGIIPANTRLHTTLSVSLGNETQTAHTELRISTSNDTIIRAVLIFAEGIFTGESHVVHPSIHNLSSSICIPIVPPKDVPVDLHLKAFVGYRSSTQFHVFESTRQLPRFSMYALTSLDPASEPISYVNFTIAERAQRVVVWLGQNFLLPEDTHIQNAPFQVCFTSLRNGGHLHIKIKLSGEITINTDDIDLAGDIIQSMASFFAIEDLQVEADFPVYFEELRKVLVKVDEYHSVHQKLSADMADHSNLIRSLLVGAEDARLMRDMKTMKSRYMELYDLNRDLLNGYKIRCNNHTELLGNLKAVNQAIQRAGRLRVGKPKNQVITACRDAIRSNNINTLFKIMRVGTASS
partner: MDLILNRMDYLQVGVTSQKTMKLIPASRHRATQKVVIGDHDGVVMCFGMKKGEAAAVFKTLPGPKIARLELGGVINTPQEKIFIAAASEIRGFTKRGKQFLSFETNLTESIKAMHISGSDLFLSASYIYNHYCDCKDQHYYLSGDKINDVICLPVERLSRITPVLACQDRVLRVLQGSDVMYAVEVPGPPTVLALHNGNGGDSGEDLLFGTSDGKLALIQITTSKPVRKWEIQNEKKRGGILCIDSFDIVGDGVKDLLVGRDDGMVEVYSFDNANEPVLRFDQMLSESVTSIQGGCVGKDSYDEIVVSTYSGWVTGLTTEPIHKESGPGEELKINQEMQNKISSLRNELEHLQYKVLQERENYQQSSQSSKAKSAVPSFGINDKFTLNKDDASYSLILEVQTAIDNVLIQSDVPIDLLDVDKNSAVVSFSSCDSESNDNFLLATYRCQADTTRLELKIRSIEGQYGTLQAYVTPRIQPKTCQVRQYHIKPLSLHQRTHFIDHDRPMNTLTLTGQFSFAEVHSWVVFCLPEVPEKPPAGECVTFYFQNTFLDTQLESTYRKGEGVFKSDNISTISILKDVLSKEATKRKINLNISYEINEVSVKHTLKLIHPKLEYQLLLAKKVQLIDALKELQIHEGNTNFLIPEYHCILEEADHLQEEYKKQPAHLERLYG

Variants of: B1
Settings: with BBS7, Q8IWZ6-2

Row | Variant | effect of a mutation on the interaction
1 | L387A | with no effect
2 | L387E | with no effect
3 | A398E | with no effect
4 | A398K | with no effect
5 | P444A | with no effect
6 | P444E | with no effect
7 | P444K | with no effect
8 | S427A | with no effect
9 | S427E | with no effect
10 | S427K | with no effect
11 | I443E | with no effect
12 | I443A | with no effect
13 | I443K | disrupting interaction strength
14 | V429K | with no effect
15 | V429E | with no effect
16 | V429A | with no effect
17 | I434K | with no effect
18 | I434E | with no effect
19 | I434A | with no effect
20 | S439A | with no effect
21 | S439K | with no effect
22 | S439E | with no effect
23 | H435A | with no effect

Row | Variant | effect of a mutation on the interaction
24 | H435E | with no effect
25 | H435K | with no effect
26 | E394K | with no effect
27 | E394A | with no effect
28 | S433K | with no effect
29 | S433E | with no effect
30 | S433A | with no effect
31 | I412R | disrupting interaction strength
32 | I412A | with no effect
33 | I412K | with no effect
34 | I412E | with no effect
35 | S405K | with no effect
36 | S405A | with no effect
37 | S405E | with no effect
38 | D409E | with no effect
39 | D409K | with no effect
40 | D409A | with no effect
41 | I411A | with no effect
42 | I411E | with no effect
43 | I411K | with no effect
44 | S388K | with no effect
45 | S388E | with no effect
46 | S388A | with no effect

Row | Variant | effect of a mutation on the interaction
47 | S407E | with no effect
48 | S407K | with no effect
49 | S407A | with no effect
50 | G421E | with no effect
51 | G421K | with no effect
52 | G421A | with no effect
53 | G425K | with no effect
54 | G425A | with no effect
55 | G425E | with no effect
56 | H428E | with no effect
57 | H428A | with no effect
58 | H428K | with no effect
59 | I441K | with no effect
60 | I441A | with no effect
61 | I441R | disrupting interaction strength
62 | I441E | disrupting interaction strength
63 | V430K | with no effect
64 | V430A | with no effect
65 | V430E | with no effect
66 | I417K | with no effect
67 | I417E | with no effect
68 | I417A | with no effect
69 | I404K | disrupting interaction strength

Row | Variant | effect of a mutation on the interaction
70 | I404A | with no effect
71 | I404E | with no effect
72 | A414K | with no effect
73 | A414E | with no effect
74 | N436E | with no effect
75 | N436A | with no effect
76 | N436K | with no effect
77 | L437K | disrupting interaction strength
78 | L437A | with no effect
79 | L437E | with no effect
80 | A419K | with no effect
81 | A419E | with no effect
82 | P432E | with no effect
83 | P432A | with no effect
84 | P432K | with no effect
85 | R413E | with no effect
86 | R413A | with no effect
87 | R413K | with no effect
88 | I422A | with no effect
89 | I422K | with no effect
90 | I422E | with no effect
